In PMC6513524, “Production and characterization of novel ssRNA bacteriophage virus-like particles from metagenomic sequencing data” (Journal of Nanobiotechnology, 2019):

What was measured:
[1] = biological target: AVE018 coat protein (ssRNA phage AVE018 (metagenomic sequence)); assay: non-reducing SDS-PAGE; purified VLPs in 20 mM Tris-HCl pH 8.0, 50% glycerol mixed with Laemmli buffer with or without 5% 2-mercaptoethanol, 10 min at 95 °C, 15% gel; disulfide-linked CP oligomers
[2] = biological target: NFZC01007443 coat protein (ssRNA phage NFZC01007443 (metagenomic sequence)); assay: as above

stoichiometry N [1] | stoichiometry N [2] | Substance
2 | – | AVE018 coat protein (natural protein)
– | 5 | NFZC01007443 coat protein (natural protein)
